Measurements: paper PMC9482650, “Quantitative fragmentomics allow affinity mapping of interactomes” (Nature Communications, 2022)
Blank lines part the entries; values can stand above or below the binder they belong to.

Key:
Assay in all cases: holdup assay
Design in all cases: key: below the threshold = too weak to quantify, mostly under pKd 3.1 to 4
[1] = target: T1, APBA1_1, Q02410
T1 sequence (Q02410 651-752, limits assumed, looked up): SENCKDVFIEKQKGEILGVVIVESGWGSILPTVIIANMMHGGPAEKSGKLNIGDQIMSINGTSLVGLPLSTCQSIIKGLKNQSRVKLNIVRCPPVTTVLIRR

[2] = target: T2, HTRA3, P83110
T2 sequence (P83110 354-453, limits assumed, looked up): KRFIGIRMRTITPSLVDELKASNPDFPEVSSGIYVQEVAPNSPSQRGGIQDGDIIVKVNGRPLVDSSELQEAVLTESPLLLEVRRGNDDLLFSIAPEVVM

[3] = target: T3, GRIP1_5, Q9Y3R0
T3 sequence (Q9Y3R0 568-668, limits assumed, looked up): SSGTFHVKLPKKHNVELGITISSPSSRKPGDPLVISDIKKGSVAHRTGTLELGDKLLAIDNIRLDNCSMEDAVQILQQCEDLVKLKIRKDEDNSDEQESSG

[4] = target: Inadl_1, Q8NI35
Chain of Inadl_1, Q8NI35 (Q8NI35 113-229): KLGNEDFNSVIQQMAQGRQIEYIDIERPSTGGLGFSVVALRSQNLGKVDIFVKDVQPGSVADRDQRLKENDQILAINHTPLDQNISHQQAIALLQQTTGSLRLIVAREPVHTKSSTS

[5] = target: NOS1, P29475
Chain of NOS1, P29475 (P29475 9-101): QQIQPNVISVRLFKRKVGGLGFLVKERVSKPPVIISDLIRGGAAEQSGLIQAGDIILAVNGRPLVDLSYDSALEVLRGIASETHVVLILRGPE

[6] = target: T4, FRMPD1, Q5SYB0
T4 sequence (Q5SYB0 52-145, limits assumed, looked up): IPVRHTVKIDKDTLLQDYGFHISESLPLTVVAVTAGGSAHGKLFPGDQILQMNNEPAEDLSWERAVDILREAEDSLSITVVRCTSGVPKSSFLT

[7] = target: GIPC2, Q8TF65
Chain of GIPC2, Q8TF65 (Q8TF65 112-203): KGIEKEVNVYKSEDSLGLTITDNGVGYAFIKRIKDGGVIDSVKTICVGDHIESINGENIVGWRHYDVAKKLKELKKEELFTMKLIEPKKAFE

[8] = target: T5, GRIP1_4, Q9Y3R0
T5 sequence (Q9Y3R0 467-571, limits assumed, looked up): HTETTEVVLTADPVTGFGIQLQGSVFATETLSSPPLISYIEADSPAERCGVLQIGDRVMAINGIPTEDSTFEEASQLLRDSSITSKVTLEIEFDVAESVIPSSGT

[9] = target: SCRIB_2, Q14160
Chain of SCRIB_2, Q14160 (Q14160 857-960): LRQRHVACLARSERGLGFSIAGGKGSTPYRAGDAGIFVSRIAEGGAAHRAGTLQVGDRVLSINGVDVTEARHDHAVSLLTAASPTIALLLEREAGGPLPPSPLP

[10] = target: T6, TIAM2, Q8IVF5
T6 sequence (Q8IVF5 885-986, limits assumed, looked up): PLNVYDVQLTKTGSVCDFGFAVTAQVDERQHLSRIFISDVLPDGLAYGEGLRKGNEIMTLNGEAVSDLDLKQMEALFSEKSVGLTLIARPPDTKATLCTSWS

[11] = target: HTRA1, Q92743
Chain of HTRA1, Q92743 (Q92743 360-477): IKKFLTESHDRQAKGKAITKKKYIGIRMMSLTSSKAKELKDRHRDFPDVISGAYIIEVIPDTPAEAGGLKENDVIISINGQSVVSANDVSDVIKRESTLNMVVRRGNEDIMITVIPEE

[12] = target: T7, TJP3_3, O95049
T7 sequence (O95049 375-456, limits assumed, looked up): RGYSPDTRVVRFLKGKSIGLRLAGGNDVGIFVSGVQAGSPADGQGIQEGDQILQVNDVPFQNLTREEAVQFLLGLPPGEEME

[13] = target: DLG4_3, P78352
Chain of DLG4_3, P78352 (P78352 306-403): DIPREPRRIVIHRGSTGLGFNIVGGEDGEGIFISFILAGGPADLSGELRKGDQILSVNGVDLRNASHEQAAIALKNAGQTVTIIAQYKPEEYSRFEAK

[14] = target: T8, DFNB31_2, Q9P202
T8 sequence (Q9P202 274-371, limits assumed, looked up): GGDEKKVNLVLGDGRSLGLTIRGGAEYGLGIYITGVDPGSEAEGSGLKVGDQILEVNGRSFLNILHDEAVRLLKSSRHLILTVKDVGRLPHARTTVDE

[15] = target: T9, APBA1_2, Q02410
T9 sequence (Q02410 742-832, limits assumed, looked up): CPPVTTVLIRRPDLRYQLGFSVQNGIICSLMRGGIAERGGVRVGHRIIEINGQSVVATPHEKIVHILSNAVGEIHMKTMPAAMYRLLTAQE

[16] = target: Inadl_2, Q8NI35
Chain of Inadl_2, Q8NI35 (Q8NI35 238-335): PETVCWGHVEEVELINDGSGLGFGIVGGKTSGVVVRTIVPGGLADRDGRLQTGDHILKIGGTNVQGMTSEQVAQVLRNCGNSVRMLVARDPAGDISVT

[17] = target: GOPC, Q9HD26
[18] = target: Inadl_3, Q8NI35
Chain of Inadl_3, Q8NI35 (Q8NI35 359-469): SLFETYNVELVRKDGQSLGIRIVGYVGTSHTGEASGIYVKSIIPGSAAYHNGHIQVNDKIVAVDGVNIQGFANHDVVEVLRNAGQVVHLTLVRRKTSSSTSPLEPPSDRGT

[19] = target: T10, PDZRN3_1, Q9UPQ7
T10 sequence (Q9UPQ7 244-349, limits assumed, looked up): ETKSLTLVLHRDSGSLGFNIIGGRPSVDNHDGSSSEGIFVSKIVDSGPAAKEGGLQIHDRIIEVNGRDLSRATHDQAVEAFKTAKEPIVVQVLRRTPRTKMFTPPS

[20] = target: SCRIB_3, Q14160
Chain of SCRIB_3, Q14160 (Q14160 999-1103): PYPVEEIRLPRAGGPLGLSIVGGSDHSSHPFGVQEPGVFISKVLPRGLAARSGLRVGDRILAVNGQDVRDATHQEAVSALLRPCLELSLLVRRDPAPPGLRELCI

[21] = target: Inadl_4, Q8NI35
Chain of Inadl_4, Q8NI35 (Q8NI35 547-651): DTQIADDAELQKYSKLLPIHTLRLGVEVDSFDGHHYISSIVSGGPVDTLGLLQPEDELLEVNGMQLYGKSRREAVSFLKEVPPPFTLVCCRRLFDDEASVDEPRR

[22] = target: T11, HTRA4, P83105
T11 sequence (P83105 378-476, limits assumed, looked up): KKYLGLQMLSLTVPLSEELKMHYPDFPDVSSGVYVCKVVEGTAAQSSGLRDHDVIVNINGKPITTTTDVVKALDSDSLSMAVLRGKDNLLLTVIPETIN

[23] = target: T12, MPDZ_10, O75970
T12 sequence (O75970 1624-1722, limits assumed, looked up): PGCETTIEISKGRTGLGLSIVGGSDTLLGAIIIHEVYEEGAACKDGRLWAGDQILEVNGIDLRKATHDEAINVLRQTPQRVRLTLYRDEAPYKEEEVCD

[24] = target: TJP2_1, Q9UDY2
Chain of TJP2_1, Q9UDY2 (Q9UDY2 24-128): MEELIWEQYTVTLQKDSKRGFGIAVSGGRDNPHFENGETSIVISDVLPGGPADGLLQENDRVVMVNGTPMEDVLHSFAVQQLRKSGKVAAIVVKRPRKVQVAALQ

[25] = target: NHERF4_1, Q86UT5-2
Chain of NHERF4_1, Q86UT5-2 (Q86UT5 other isoform, or with tags, fused parts or gaps): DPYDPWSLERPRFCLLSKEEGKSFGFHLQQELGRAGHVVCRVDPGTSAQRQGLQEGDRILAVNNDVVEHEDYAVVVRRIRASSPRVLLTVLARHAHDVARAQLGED

[26] = target: MAGI2_4, Q86UL8; conditions: plain residues with an end cap or a label only (N-terminal biotin on a linker: ttds)
Chain of MAGI2_4, Q86UL8 (Q86UL8 772-865): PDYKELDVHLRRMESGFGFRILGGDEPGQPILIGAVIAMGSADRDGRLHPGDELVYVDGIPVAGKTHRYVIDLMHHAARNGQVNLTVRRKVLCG

[27] = plain residues with an end cap or a label only (N-terminal biotin on a linker: ahx)
[28] = plain residues with an end cap or a label only (N-terminal biotin on a linker: ttds)

- pKd [1, 27]: below the threshold
- pKd [2, 27]: below the threshold
- pKd [3, 27]: below the threshold
- pKd [4, 27]: below the threshold
- pKd [5, 27]: below the threshold
- pKd [6, 27]: below the threshold
- pKd [7, 27]: below the threshold
- pKd [8, 27]: below the threshold
- pKd [9, 27]: below the threshold
- pKd [10, 27]: below the threshold
- pKd [11, 27]: 4.32
- pKd [12, 27]: below the threshold
- pKd [13, 27]: below the threshold
- pKd [14, 27]: below the threshold
- pKd [15, 27]: below the threshold
- pKd [16, 27]: below the threshold
- pKd [17, 27]: below the threshold
- pKd [18, 27]: below the threshold
- pKd [19, 27]: below the threshold
- pKd [20, 27]: below the threshold
- pKd [21, 27]: below the threshold
- pKd [22, 27]: below the threshold
- pKd [23, 27]: below the threshold
- pKd [24, 27]: below the threshold
- pKd [25, 27]: below the threshold
Binder: LSDPSVSTVV [GRIN1, Q05586;Q05586-2]

- pKd [1, 28]: below the threshold
- pKd [2, 28]: below the threshold
- pKd [3, 28]: 3.65
- pKd [4, 28]: 3.66
- pKd [5, 28]: below the threshold
- pKd [26]: below the threshold
- pKd [6, 28]: below the threshold
- pKd [7, 28]: below the threshold
- pKd [8, 28]: below the threshold
- pKd [9, 28]: below the threshold
- pKd [10, 28]: below the threshold
- pKd [11, 28]: below the threshold
- pKd [12, 28]: below the threshold
- pKd [13, 28]: below the threshold
- pKd [14, 28]: below the threshold
- pKd [15, 28]: 3.54
- pKd [16, 28]: below the threshold
- pKd [17, 28]: 3.95
- pKd [18, 28]: below the threshold
- pKd [19, 28]: below the threshold
- pKd [20, 28]: below the threshold
- pKd [21, 28]: below the threshold
- pKd [22, 28]: below the threshold
- pKd [23, 28]: below the threshold
- pKd [24, 28]: below the threshold
- pKd [25, 28]: below the threshold
Binder: PRVKPQRSKV [PPP1R13L, Q8WUF5]

- pKd [1, 28]: below the threshold
- pKd [2, 28]: below the threshold
- pKd [3, 28]: below the threshold
- pKd [5, 28]: below the threshold
- pKd [26]: below the threshold
- pKd [6, 28]: below the threshold
- pKd [8, 28]: below the threshold
- pKd [9, 28]: 4.68
- pKd [10, 28]: below the threshold
- pKd [11, 28]: 3.92
- pKd [12, 28]: below the threshold
- pKd [13, 28]: below the threshold
- pKd [14, 28]: below the threshold
- pKd [16, 28]: below the threshold
- pKd [17, 28]: 4.13
- pKd [18, 28]: below the threshold
- pKd [19, 28]: 3.92
- pKd [20, 28]: 5.08
- pKd [21, 28]: below the threshold
- pKd [22, 28]: below the threshold
- pKd [23, 28]: below the threshold
- pKd [24, 28]: below the threshold
- pKd [25, 28]: below the threshold
Binder: NDPAWDETNL [ARHGEF7, Q14155;Q14155-1]
